Assay [1] deals with ICP27Δ215 (HSV-1 ICP27 residues 215-512) (Herpes simplex virus 1 (HSV-1)) (UniProt P10238). Put plainly: SEC-MALS; 0.5 mL at 1 mg/mL on Superdex 200 10/300GL, 0.75 mL/min in gel filtration buffer (20 mM Tris, 150 mM NaCl, 50 mM L-Arg, 50 mM L-Glu, 50 mM L-Pro, 0.1 mM TCEP, 10 μM ZnCl2, pH 8.5). (In general: Size exclusion chromatography separates by hydrodynamic size, large species first.)

Assay [2] shares this target. In words: AUC; sedimentation velocity, 1 mg/mL in 20 mM HEPES pH 7.4, 150 mM NaCl, 40000 RPM, 20 °C.
Assay [3] has as its target ICP27Δ241 (HSV-1 ICP27 C-terminal residues 241-512) (Herpes simplex virus 1 (HSV-1)) (UniProt P10238). In words: SEC-MALS; 0.5 mL at 1 mg/mL on Superdex 200 10/300GL, 0.75 mL/min in gel filtration buffer (20 mM Tris, 150 mM NaCl, 50 mM L-Arg, 50 mM L-Glu, 50 mM L-Pro, 0.1 mM TCEP, 10 μM ZnCl2, pH 8.5).
Assay [4] shares this target. Put plainly: AUC; sedimentation velocity, 1 mg/mL in 20 mM HEPES pH 7.4, 150 mM NaCl, 40000 RPM, 20 °C.
Assay [5] addresses ICP27Δ189 (HSV-1 ICP27 residues 189-512) (Herpes simplex virus 1 (HSV-1)) (UniProt P10238). In words: SEC-MALS; 0.5 mL at 1 mg/mL on Superdex 200 10/300GL, 0.75 mL/min in gel filtration buffer (20 mM Tris, 150 mM NaCl, 50 mM L-Arg, 50 mM L-Glu, 50 mM L-Pro, 0.1 mM TCEP, 10 μM ZnCl2, pH 8.5).
The target is the same in assay [6]. In words: AUC; sedimentation velocity, 1 mg/mL in 20 mM HEPES pH 7.4, 150 mM NaCl, 40000 RPM, 20 °C.

The stoichiometry N is the number of molecules, sites or subunits per partner or assembly. “ICP27Δ215 (HSV-1 ICP27 residues 215-512) (from UniProt P10238 215-512) (domain or fragment)”: the stoichiometry N in assay [1] and in assay [2] was 2 in each case.

As to “ICP27Δ241 (HSV-1 ICP27 C-terminal residues 241-512) (from UniProt P10238 241-512) (domain or fragment)”, the stoichiometry N in assay [3] and in assay [4] was 2 each time.

As to “ICP27Δ189 (HSV-1 ICP27 residues 189-512) (from UniProt P10238 189-512) (domain or fragment)”, the stoichiometry N in assay [5] and in assay [6] was 2 throughout.

These data come from publication PMC4650695.
